Source: paper PMC7655567

Substrate: O=C(O)CO
Assay: purified protein
Settings: 2 mM FMN, 5 mM MgSO4, 0.5 mM EDTA, 3 mM phenylhydrazine; measured in parallel with RcGOX

B1: AtGOX1 (Arabidopsis thaliana) (protein)
chain: MEITNVTEYDAIAKQKLPKMVYDYYASGAEDQWTLQENRNAFARILFRPRILIDVSKIDMTTTVLGFKISMPIMVAPTAMQKMAHPDGEYATARAASAAGTIMTLSSWATSSVEEVASTGPGIRFFQLYVYKNRNVVEQLVRRAERAGFKAIALTVDTPRLGRRESDIKNRFTLPPNLTLKNFEGLDLGKMDEANDSGLASYVAGQIDRTLSWKDVQWLQTITKLPILVKGVLTGEDARIAIQAGAAGIIVSNHGARQLDYVPATISALEEVVKATQGRIPVFLDGGVRRGTDVFKALALGASGIFIGRPVVFSLAAEGEAGVRKVLQMLRDEFELTMALSGCRSLKEISRNHITTEWDTPRPSARL
  Km: 390 ± 100 µM
  kcat: 1.04 ± 0.237 s⁻¹
